In the assay the target is T1, PD-1蛋白 (PD-1抗原) (human, UniProt Q15116 25-167, limits assumed).
T1 construct: The construct is not described; also called A蛋白
Briefly: SPR, Bio-Rad ProteOn XPR36, antibody coupled to channel L6, PD-1 antigen as analyte. (SPR reads the build-up and loss of mass on a sensor chip optically.)

T1 sequence (Q15116 25-167 limits assumed): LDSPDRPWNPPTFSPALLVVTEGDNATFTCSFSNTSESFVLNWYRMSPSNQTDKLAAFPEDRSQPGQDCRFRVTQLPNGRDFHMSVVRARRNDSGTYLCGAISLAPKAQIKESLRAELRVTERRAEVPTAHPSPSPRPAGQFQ

B1: 抗人PD-1的单克隆抗体2D1 (2D1株单克隆抗体) (antibody, V domains shown)
VH: QVQLQQSGDDLVKPGASVKLSCKASGYTFTSYWINWIKQRPGQGLEWIGRIAPGSGSTYYNEMFKGKATLTVDTSSSTAYIQLSSLSSEDSAVYFCARLGQYYAMDYWGQGTTLTVSS
VL: DIVMTQTPLSLPVSLGDQASISCRSSQSLVHSNGNTYLHWYLQKPGQSPKLLIYKVSNRFSGVPDRFSGSGSGTDFTLKISRVEAEDLGVYFCSQSTHVPYTFGGGTKLELKR
notes: Mouse monoclonal antibody from a Balb/c x SP2/0 hybridoma; It was purified from ascites, and hybridoma supernatant was used in flow cytometry; it was detected with anti-mouse IgG; also called 2D1-1
B1: the Kd was found to be 0.134 nM, the koff stood at 2.94e-05 s⁻¹ and the kon turned out to be 220000 M⁻¹ s⁻¹.

The term Kd denotes the equilibrium constant for the complex coming apart. As a reminder, the koff is the rate constant with which the complex falls apart. A word on the kon: it is the rate constant with which the complex forms. A lower kon goes with slow association.

The values above are taken from patent CN106831988A (SHENZHEN INST OF ADV TECH CAS, dated 2017).
